Reference: PMC3063399 (Cell, 2011)
Read-outs that look alike come from different tables or passages of the source.

Experiments:
PAN = target: T1, PAN (Methanocaldococcus jannaschii, UniProt Q58576); experiment: α-32P-ATP binding, rapid spin gel filtration
T1 sequence (Q58576 1-430): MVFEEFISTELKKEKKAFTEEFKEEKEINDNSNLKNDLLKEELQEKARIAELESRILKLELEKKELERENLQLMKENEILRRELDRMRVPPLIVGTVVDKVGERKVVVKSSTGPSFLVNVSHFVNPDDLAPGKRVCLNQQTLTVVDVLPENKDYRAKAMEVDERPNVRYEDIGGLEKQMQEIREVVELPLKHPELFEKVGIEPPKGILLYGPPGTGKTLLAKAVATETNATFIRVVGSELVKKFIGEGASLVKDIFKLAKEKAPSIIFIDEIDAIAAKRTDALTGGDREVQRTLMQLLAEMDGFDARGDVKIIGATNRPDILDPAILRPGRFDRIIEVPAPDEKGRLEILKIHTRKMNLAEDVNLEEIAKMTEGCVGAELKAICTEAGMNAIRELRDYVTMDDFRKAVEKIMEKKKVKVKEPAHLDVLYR

PAN ATPase complex [1] = target: PAN ATPase complex (UniProt Q58576); experiment: fluorescence polarisation
PAN ATPase complex [2] = target: PAN ATPase complex (UniProt Q58576); experiment: fluorescence polarisation; remark: listed apart in the source
[3] = substrate: Nc1ncnc2c1ncn2[C@@H]1O[C@H](COP(=O)(O)OP(=O)(O)OP(=O)(O)O)[C@@H](O)[C@H]1O; experiment: ATPase, inorganic phosphate release; assay type: biochemical, Methanocaldococcus jannaschii; conditions: 45 °C

Work on `Nc1ncnc2c1ncn2[C@@H]1O[C@H](COP(=O)(O)OP(=O)(O)OP(=O)(O)O)[C@@H](O)[C@H]1O` [ATP] yielded a Kd (PAN) of 13 µM.

For “FITC-casein (from UniProt P02666 16-224) (natural protein)”, the change in polarization (PAN ATPase complex [1]) was 7 mP and the change in polarization (PAN ATPase complex [2]) was 56 mP.

B1: PAN (Methanocaldococcus jannaschii DSM 2661) (protein)
chain: T1 sequence (Q58576 1-430)
In the case of B1, the Km [3] is reported as 263 ± 18 µM.
